Results on three molecules are retold here after US20210388084A1 (JJP BIOLOGICS SP Z O O, published 2021).

The target of experiment [1] is T1, membrane-bound full-length human CD89 (human, UniProt P24071 22-287).
T1 construct: on stably or transiently transfected HEK293F cells; also called FcalphaRI; huCD89
The experiment is described as follows: FACS, HEK293F-huCD89, unlabeled Ab 10 ug/mL first; competitor A59-PE. (In general: Flow cytometry measures light scatter and fluorescence of single cells or particles in a stream.)
Method: Then, 10 μL/tube (ie, 0.1×10⁶ cells) of these cells were incubated with or without 100 μL purified mouse anti-human CD89 antibody at 10 μg/mL (in PBS/BSA/NaN₃) for 30 minutes at 4° C. […] After extensive washing in PBS/BSA/NaN₃, cells were fixed in 2% formaldehyde in PBS/BSA/NaN₃ for 30 minutes at 4° C.

The target of experiment [2] is T2, chimeric human/cynomolgus monkey CD89-II (human/cynomolgus monkey chimera, UniProt P24071 22-287).
T2 construct: also called ΔIle47-Ile71 human EC1-CD89; II (47-71)
T2 chain: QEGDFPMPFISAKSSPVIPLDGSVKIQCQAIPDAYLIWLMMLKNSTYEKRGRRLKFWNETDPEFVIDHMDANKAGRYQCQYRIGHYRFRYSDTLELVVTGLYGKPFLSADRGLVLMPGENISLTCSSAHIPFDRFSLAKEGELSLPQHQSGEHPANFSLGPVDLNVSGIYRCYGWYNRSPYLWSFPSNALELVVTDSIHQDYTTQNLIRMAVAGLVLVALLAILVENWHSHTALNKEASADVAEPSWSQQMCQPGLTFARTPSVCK
The experiment is described as follows: FACS, transiently transfected HEK293F, 10 ug/mL; ++ strong, + intermediate, -/+ weak.
Method: (§1) After 48 hours, the binding of CD89/IgA blocking mouse anti-human CD89 antibodies to aforementioned chimeric human CD89/cynomolgus monkey CD89 constructs on transfected cells was analyzed by FACS analysis. To this end, transient transfected HEK293F cells were put at 10×10⁶ cells/mL in ice-chilled phosphate-buffered saline containing 0.1% BSA (Sigma)/0.05% NaN₃ (PBS/BSA/NaN₃) supplemented with 50 μg/mL human IgGs (blocking Fcγ receptors; Sigma) for 10 minutes at 4° C. Then, 10 μL/tube (ie, 0.1×10⁶ cells) of these cells were incubated with or without 100 μL purified mouse anti-human CD89 antibody at 10 μg/mL (in PBS/BSA/NaN₃) for 30 minutes at 4° C. […] After extensive washing in PBS/BSA/NaN₃, cells were subsequently incubated with 1:200 diluted PE-conjugated goat anti-mouse IgG Fey-specific antibodies (Jackson ImmunoResearch) for 30 minutes at 4° C. After extensive washing in PBS/BSA/NaN₃, cells were fixed in 2% formaldehyde in PBS/BSA/NaN₃ for 30 minutes at 4° C.

In experiment [3] the target is T3, chimeric human/cynomolgus monkey CD89-hotspots (human/cynomolgus monkey chimera, UniProt P24071 22-287).
T3 construct: also called ΔThr58, Gln59; ΔArg73, Arg74, Lys76
T3 chain: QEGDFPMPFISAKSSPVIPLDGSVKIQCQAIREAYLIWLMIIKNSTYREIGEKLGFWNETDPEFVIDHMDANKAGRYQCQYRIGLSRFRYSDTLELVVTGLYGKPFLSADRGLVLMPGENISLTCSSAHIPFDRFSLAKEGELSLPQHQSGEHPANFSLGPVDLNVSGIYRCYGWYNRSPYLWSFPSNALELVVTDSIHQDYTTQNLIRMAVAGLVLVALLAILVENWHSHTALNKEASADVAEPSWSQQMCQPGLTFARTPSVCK
The experiment is described as follows: FACS, transiently transfected HEK293F; - = no binding.
Method: as §1

For experiment [4], the target named is T4, chimeric human EC1-CD89/bovine EC2-Fcγ2R (human TM & human IC) (human/bovine chimera).
T4 construct: also called human EC1-CD89 (version with human transmembrane-intracellular region)
The experiment is described as follows: FACS, transiently transfected HEK293F, 10 ug/mL.
Method: (§2) After 48 hours and/or 72 hours, the binding of CD89/IgA blocking mouse anti-human CD89 antibodies to aforementioned chimeric human/bovine receptors on transfected cells was analyzed by FACS analysis. To this end, transient transfected HEK293F cells were put at 10×10⁶ cells/mL in ice-chilled phosphate-buffered saline containing 0.1% BSA (Sigma)/0.05% NaN₃ (PBS/BSA/NaN₃) supplemented with 50 μg/mL human IgGs (blocking Fcγ receptors; Sigma) for 10 minutes at 4° C. Then, 10 μL/tube (ie, 0.1×10⁶ cells) of these cells were incubated with or without 100 μL purified mouse anti-human CD89 antibody at 10 μg/mL (in PBS/BSA/NaN₃) for 30 minutes at 4° C. […] After extensive washing in PBS/BSA/NaN₃, cells were subsequently incubated with 1:200 diluted PE-conjugated goat anti-mouse IgG Fey-specific antibodies (Jackson ImmunoResearch) for 30 minutes at 4° C. After extensive washing in PBS/BSA/NaN₃, cells were fixed in 2% formaldehyde in PBS/BSA/NaN₃ for 30 minutes at 4° C.

Experiment [5] has as its target T5, chimeric human EC1-CD89/bovine EC2-Fcγ2R (bovine TM & bovine IC) (human/bovine chimera).
T5 construct: also called human EC1-CD89 (version with bovine transmembrane-intracellular region)
Kind of experiment: FACS, transiently transfected HEK293F, 10 ug/mL.
Method: as §2

In experiment [6] the target is T6, membrane full-length bovine Fcγ2R (bovine).
T6 chain: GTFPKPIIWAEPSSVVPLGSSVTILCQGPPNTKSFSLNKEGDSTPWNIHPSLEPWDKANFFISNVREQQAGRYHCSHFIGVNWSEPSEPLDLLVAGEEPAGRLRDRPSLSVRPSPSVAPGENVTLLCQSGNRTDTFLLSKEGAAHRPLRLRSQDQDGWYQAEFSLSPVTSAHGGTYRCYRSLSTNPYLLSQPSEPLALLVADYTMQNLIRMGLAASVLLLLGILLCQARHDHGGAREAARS
Kind of experiment: FACS, transiently transfected HEK293F.
Method: as §2

In experiment [7] the target is T7, chimeric human/cynomolgus monkey CD89-III (human/cynomolgus monkey chimera, UniProt P24071 22-287).
T7 construct: also called ΔGly72-Gly96 human EC1-CD89; III (72-96)
T7 chain: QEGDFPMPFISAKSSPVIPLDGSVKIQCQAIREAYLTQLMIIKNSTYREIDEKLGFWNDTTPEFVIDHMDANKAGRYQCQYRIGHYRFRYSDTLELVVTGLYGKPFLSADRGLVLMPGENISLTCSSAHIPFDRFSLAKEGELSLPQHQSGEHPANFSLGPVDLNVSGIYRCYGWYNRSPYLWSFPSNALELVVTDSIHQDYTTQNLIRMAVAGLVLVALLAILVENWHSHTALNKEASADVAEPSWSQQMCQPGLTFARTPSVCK
The experiment is described as follows: FACS, transiently transfected HEK293F; - = no binding.
Method: as §1

The target of experiment [8] is T7, chimeric human/cynomolgus monkey …. Kind of experiment: FACS, transiently transfected HEK293F, 10 ug/mL; ++ strong, + intermediate, -/+ weak.
Method: as §1
For experiment [9], the target named is T3, chimeric human/cynomolgus monkey …. The description is as above.
Method: as §1
Experiment [10] addresses T2, chimeric human/cynomolgus monkey CD89-II. The experiment is described as follows: FACS, transiently transfected HEK293F; - = no binding.
Method: as §1
For experiment [11], the target named is T1, membrane-bound full-length human CD89. Kind of experiment: FACS, HEK293F-huCD89, 4C +NaN3, IgA then Ab 10 ug/mL; pre-bound heat-aggr serum IgA.
Method: After extensive washing in PBS/BSA/NaN₃, 1:200 diluted PE-conjugated streptavidin (Jackson ImmunoResearch) was added, and incubated for 30 minutes at 4° C. After extensive washing in PBS/BSA/NaN₃, cells were fixed in 2% formaldehyde in PBS/BSA/NaN₃ for 30 minutes at 4° C.
For experiment [12] the target is unchanged. The experiment is described as follows: FACS, HEK293F-huCD89, 4C +NaN3, IgA then Ab 10 ug/mL; pre-bound non-aggr serum IgA.
Method: After this (ie, without washing), 50 μL purified mouse anti-human CD89 antibody at 20 μg/mL (in PBS/BSA/NaN₃) was added to these cells, and incubated for another 30 minutes at 4° C. […] After extensive washing in PBS/BSA/NaN₃, 1:200 diluted PE-conjugated streptavidin (Jackson ImmunoResearch) was added, and incubated for 30 minutes at 4° C. After extensive washing in PBS/BSA/NaN₃, cells were fixed in 2% formaldehyde in PBS/BSA/NaN₃ for 30 minutes at 4° C.

B1: mouse anti-human CD89-specific antibody 10E7 (antibody, mouse IgG1, V domains shown)
VH: EVQLVESGGGLVQPGGSLKLSCAASGLTFSSYGMSWVRQTPDKRLELVATINGNGDITYYPDSVKGRFTISRDNAKNTLYLQMSSLKSEDTAMYYCARDYDYDYAMDYWGQGTSVTVSS
VL: DIQMTQSTSSLSASLGDSVTISCRASQDIINYLNWYQQKPDGTVKLLIYYTSRLHSGVPSRFSGSGSGTEYSLTVSNLEKEDIATYFCQQGKTLPYTFGGGTKLEIK
B1: the “% blocking of A59-PE binding” value in experiment [1] was under 25%. In addition, the binding result in experiment [2] is “binds”; in experiment [3], “no binding (tested: 10 µg/mL)”; in experiment [4] it was “binds”; in experiment [5], “binds”; in experiment [6], “no binding (tested: 10 µg/mL)”.

B2: mouse anti-human CD89-specific antibody 8F3 (antibody, mouse IgG1, V domains shown)
VH: EVQLVESGGGLVKPGGSLKLSCAASGFTFSNYGMSWVRQTPDKRLEWVATMHSGGTYTYYPDNVKGRFTISRDNAKNNLYLQMSSLRSEDTAMYYCARETGLYDGLFDFWGQGTTLTVSS
VL: DVQITQSPSYLAASPGETITINCRASKTISKYLAWYQEKPGKTNMLLIYSGSTLQSGVPSRFSGSGSGTDFTLTISSLEPEDLAMYYCQQHDEYPWTFGGGTKLEIK
With B2, the “% blocking of A59-PE binding” value in experiment [1] was under 25%. Also, the binding result is “binds” in experiment [2], “no binding (tested: 10 µg/mL)” in experiment [7] and “no binding (tested: 10 µg/mL)” in [3].

B3: mouse anti-human CD89-specific antibody 20B4 (antibody, mouse IgG1, V domains shown)
VH: QVQLKESGPGLVAPSQSLSITCTVSGFSLTSYGVHWVRQPPGKGLEWLGIIWAGGSTSYNSALMSRLSISKDNSKSQVFLKMNSLQTDDTAMYYCARDHYDLFAYWGQGTLVTVSA
VL: DILMTQSPSSMSVSLGDTVSITCHASQDISRNIGWLQQKPGKSFKGLIYHGTNLEDGVPSRFSGSGSGADYSLTISSLESEDFADYYCVQYAQFPRTFGGGTKLEIK
Turning to B3, the binding result is reported as “binds” in experiment [8], “binds” in [9] and “no binding (tested: 10 µg/mL)” in [10]. Further, the “percent IgA binding” value lay within 26 to 50% in experiment [11] and 0 to 25% in [12].
